In the DeepSol protein solubility set:

Assay: soluble on expression in E. coli; label from the status in PepcDB or PDB records

Row | Sequence | soluble on expression in E. coli
1 | MNPIHDRTSDYHKYLKVKQGDSDLFKLTVSDKRYIWYNPDPKERDSYECGEIVSETSDSFTFKTVDGQDRQVKKDDANQRNPIKFDGVEDMSELSYLNEPAVFHNLRVRYNQDLIYTYSGLFLVAVNPFKRIPIYTQEMVDIFKGRRRNEVAPHIFAISDVAYRSMLDDRQNQSLLITGESGAGKTENTKKVIQYLASVAGRNQANGSGVLEQQILQANPILEAFGNAKTTRNNNSSRFGKFIEIQFNNAGFISGASIQSYLLEKSRVVFQSETERNYHIFYQLLAGATAEEKKALHLAGPESFNYLNQSGCVDIKGVSDSEEFKITRQAMDIVGFSQEEQMSIFKIIAGILHLGNIKFEKGAGEGAVLKDKTALNAASTVFGVNPSVLEKALMEPRILAGRDLVAQHLNVEKSSSSRDALVKALYGRLFLWLVKKINNVLCQERKAYFIGVLDISGFEIFKVNSFEQLCINYTNEKLQQFFNHHMFKVEQEEYLKEKINWTFIDFGLDSQATIDLIDGRQPPGILALLDEQSVFPNATDNTLITKLHSHFSKKNAKYEEPRFSKTEFGVTHYAGQVMYEIQDWLEKNKDPLQQDLELCFKDSSDNVVTKLFNDPNIASRAKKGANFITVAAQYKEQLASLMATLETTNPHFVRCIIPNNKQLPAKLEDKVVLDQLRCNGVLEGIRITRKGFPNRIIYADFVKRYYLLAPNVPRDAEDSQKATDAVLKHLNIDPEQYRFGITKIFFRAGQLARIEEAREPN | soluble
2 | MLSFLQSFFKSLGYEDYFKPIAPSSPRFFTKYCNETQKKITIVIDSNNIIRPFVFDESNEREPLFVAHLGCSECMRWNRMYGENIAENNEPETDSEDETDYESETSDSELGQDSPNPNLSEALNNCIENFDQLVDEVVRHKDFHERSQLLRVLEECLGNMNSFLQNENLTVDDISTGACALLNETAEKLKQMFSSSGISGRKESSEGTNKDLIKFGELEIRGDEEEDDDDESYVEGEEEDSSDEDLDDEDQEGESSIEPRLSETFKKSEARESLSSKEAPVKDLVIYQKFRDEHEDLEESENEPRMSDEAEKLVEDKIIEESDEDSFDIIGRDEELDDDSNGKEEEELELDVTQEDSEDDEQFFSL | not soluble
3 | MKFDVIIIGGSYAGLSAALQLGRARKNILLVDAGERRNRFASHSHGFLGQDGKAPGEIIAEARRQIERYPTIHWVEGRVTDAKGSFGEFIVEIDGGRRETAGRLILAMGVTDELPEIAGLRERWGSAVFHCPYCHGYELDQGKIGVIAASPMAIHHALMLPDWGETTFFTNGIVEPDADQHALLAARGVRVETTRIREIAGHADVVLADGRSIALAGLFTQPKLRITVDWIEKLGCAVEEGPMGSTIVTDPMKQTTARGIFACGDVARPAGSVALAVGDGAMAGAAAHRSILFPEMR | soluble
4 | YEGGWTQDKQWEREMNIAQEKYGPIFAKYAAMPIEEVAKDEHAMKMGSRMFATYCSICHGSDAKGALGFPNLADNEWRWGGDPQSIETTILGGRHAIMAAWGDILGEDGVKNVAAYVRTELAGLKLPEGTKADVEAGKQIFSVNCVACHGPEGKGTALVGAPNLTNPGAFIYGSSYAQLQQTIRHGRQGQMPAQEPYLGKEKVHILAAYI | not soluble
5 | MGSDKIHHHHHHLDDLSEFVDQVPLLDHHCHFLIDGKVPNRDDRLAQVSTEADKDYPLADTKNRLAYHGFLALAKEFALDANNPLAAMNDPGYATYNHRIFGHFHFKELLIDTGFVPDDPILDLDQTAELVGIPVKAIYRLETHAEDFMLEHDNFAAWWQAFSNDVKQAKAHGFVGFKSIAAYRVGLHLEPVNVIEAAAGFDTWKHSGEKRLTSKPLIDYMLYHVAPFIIAQDMPLQFHVGYGDADTDMYLGNPLLMRDYLKAFTKKGLKVVLLHCYPYHREAGYLASVFPNLYFDISLLDNLGPSGASRVFNEAVELAPYTRILFASDASTYPEMYGLAARQFKQALVAHFNQLPFVDLAQKKAWINAICWQTSAKLYHQERELRV | not soluble
6 | MGSDKIHHHHHHMAVTVENLTKRYGEKVALDNVSFDVKKGDILGIIGKSGAGKTTLIKILRGVESFDEGKIEVCGKTENLREITAIHLQRNFALWAEPAIYNIIRKLYAVRTDSDEGLPLEEEMEEYRKDATEILKLVGLEHKKDAYSNILSGGEKQRLILGRQLAKIYAKNGDGVLLLDEPATMACPASKQILLDVLKNINEKLGVTIIVTSHLPEIHKYLCKSCILIENGKIIMKDTPEKVVDEFLKDMVEAYDRLSKPTDKTVVEVEDASKRYYVVNGGETLNLKDISFKVKEKEILSILGPSGTGKSVILRLLAGLEAPDKGVVKLEGIDLKDFGWNRMNLRRKIGIMHQEFSLAHYLTVNELLKYRLGVKSIETVESAKLKAAELGISPKMVDGLYQLLDLPETEMRNKLDKIGISEMVVRKLFPAKPVEYDANELLEALDLNKETLNKKPTELSGGEKVRVAMALQLALEPDILLLDEPFGDLDPLTLREVSNYLKKINDTVGTTIILISHHVELIKEISDRAILIDEGKLLMNGNPEEICEKFIERSNSKFMNQ | not soluble
7 | ASLLARYPPEKLFQAERNFNAAQDLDVSLLEGDLVGVIKKKDPMGSQNRWLIDNGVTKGFVYSSFLKPYNPRRSHSDAS | soluble
8 | MKLFERIHQDTEIRQIYDAIGQMEDEEAGWAYHNWFHVTNVVAMTEMILKQLAVSEEYLEAAKIAALLHDVGALQGKAGHALRGKQFAEAYFRKQKICLPYQEEILSSIENHSNGFDSEELMTLALIISDKLDITTSRVAKAGYFVPGMRQFQFLKKIEIMLSEQEVCVSFTAEEELDLEELNAFYFMPKVFKAIAAFSGKIQRRPIVLLNNQEWPVPKQKNPSTVHLEHHHHHH | soluble
9 | MEKSLVDTVYALKDEVQELRQDNKKMKKSLEEEQRARKDLEKLVRKVLKNMNDPAWDETNL | soluble
10 | MVARSEEIVIVEEDTTAKCLMLLSRVGECGGGCGGDERVFRCKTCLKEFSSFQALGGHRASHKKLINSDNPSLLGSLSNKKTKTSHPCPICGVKFPMGQALGGHMRRHRNEKVSGSLVTRSFLPETTTVTALKKFSSGKRVACLDLDLDSMESLVNWKLELGRTISWS | not soluble
11 | MPNPRRIVFGDVHGHFDALTALFEAIAPNERDGVYFVGDLIDRGPESAKVVDFVMENKYHCLLGNHEQMMLDAVGGFNFSPQLLHAWIYSGGKSTLESYEHQIPQSHVDWMRNLPLYLDLGDVWLVHAGVDPRLPIEEQGEAQFCWIRDEFHRYPYPYFANKLIITGHTITFTFANVEPGKLVSGPGWLDIDTGAYHPKSGWLTALELNNQEVYQAHIFTNEVRRLPLEDAVVPLPPQNLHRLEHHHHHH | not soluble
12 | MIVNAFYNEKGVGDTLLIETGEVTFENREWERRGDVARIFDRETKQVAGFNIFNSSKYFDITANGKVDLTEELVALMNQVIEKAGFEPEIVADLTPKFVVGYVESKEKHPNADKLNVCQINVGGEVLQIVCGAPNIDAGQKVVVAKIGAVMPSGLIIKPSNLRGEDSFGMVCAARELAIPNAPTEKGILVLEDSATPGEEFPVNFLEHHHHHH | not soluble
13 | MGSDKIHHHHHHNDPNIQIATQDSLSTLNYRINQLLKNGTVTSSSKKNPEVKTDTDKTANDSTSDSRVWSKPEANVYIDIHDNMQLRSATIDAMNAWNRTGAFTFKQIDNKKNAQIIVNVVDDSGTDAAGETATTYNPATGHLLKATVHLNRYYLQNEWYGYSNNRIINTAEHELGHAIGLNHTNSVSVMYPKGSIYTIQPQDIKNLKKIYHEN | not soluble
14 | AHHHHHHGSKERLEKLVKFMDENSIDRVFIAKPVNVYYFSGTSPLGGGYIIVDGDEATLYVPELEYEMAKEESKLPVVKFKKFDEIYEILKNTETLGIEGTLSYSMVENFKEKSNVKEFKKIDDVIKDLRIIKTKEEIEIIEKACEIADKAVMAAIEEITEGKREREVAAKVEYLMKMNGAEKPAFDTIIASGHRSALPHGVASDKRIERGDLVVIDLGALYNHYNSDITRTIVVGSPNEKQREIYEIVLEAQKRAVEAAKPGMTAKELDSIAREIIKEYGYGDYFIHSLGHGVGLEIHEWPRISQYDETVLKEGMVITIEPGIYIPKLGGVRIEDTVLITENGAKRLTKTERELL | not soluble
15 | MPAFVERTPSAEVPRQVLRPHAEHAFAAELASLAGQDDRPRPARWRLSPWAVATYLLGGTLPDGTVITPKYVGPRRVVEVAVTTLATDRALLLLGVPGTAKTWVSEHLAAAVSGDSTLLVQGTAGTPEEAIRYGWNYARLLAHGPGRDALVPSPVMRAMTEGATVRVEELTRIPADVQDSLITLLSEKTLPIPELGEEVQAVRGFNLIATANDRDRGVNDLSSALRRRFNTVVLPLPESAEAEVDIVTRRVDQIGRSLDLPSAPDGTDEIRRVVTVFRELRDGLTSDGRTKVKSPSGPLSTAEAISVVTGGLALCAHFGDGVLRAGDLAAGVLGAVVRDPGTDRVVWQEYLETVVREREGWQDFYRACREVTALEHHHHHH | not soluble
16 | MFLVDSHCHLDGLDYQSLHKDVDDVLAKAAARDVKFCLAVATTLPGYRHMRKLVGKRDNVVFSCGVHPLNQDEAYDVEELRLLAAEDDVVAMGETGLDYFYTPETKIRQQASFIHHIQIGRELHKPVIVHTRDARADTLAILREEKVTDCGGVLHCFTEDRETAGKLLDLGFYISFSGIVTFRNAEQLRDAARYVPLDRLLVETDSPYLAPVPHRGKENQPAMVRDVAEYMAVLKGVAVEELAQITTDNFARLFHIDASRLSSIR | not soluble
17 | YIGSQDTPYTGGLINTFSYKNWELTANLSFNLGGYVRTTPSYNFINFDRGQNVNSDILDRWTPENTDGRLPALITSEKRADEYYWYDQKSEIYKNLDIWVKKLNYFRLQNLRLGYRLPEKMTKSLGMGSASVAIEGRNLLVFGSSYKNFLDPESMYNPYAPPIPKSITFSLNLNF | not soluble
18 | MGSDKIHHHHHHMLVAERQQKIVEIVNMRSSIRVSELSDIFSVTEETIRRDLEKLEKEHKLSRSHGGAVSIQQKESEIHFSEREITNVIEKKAIAHEAAKYVKSGDRIILDASTTAWYMAKILPDIELTVITNSMKAAIELSNKENISVISTGGILLEKSLSFAGPLAERSLETYHVNKTFLSCKGFDVHNGMSDSNEWQALLKKRMIERSDQTILMADSSKWGNREFSHIASLQDVSRLITDSGLDPASVKALEDKKVKVTAVPLSKRG | not soluble
19 | MNKRIVICADGTWNRPEKDLKVDFPTNVLRLARAISPIAADGKPQQVFYDWGVGSYYDEVIGGATGRGLHKNIMDGYRYIVQNYSPGDEIYLFGFSRGAYTVRCLCGLINNCGILKRPEARLIQQAFDHYKKSSAPFAPSGDKSVEFRHEHCHESREIKFVGVWDTVGAMGIPISFLGLFEDKDEFYDTKIGRNVRVARHALAIDEHRSDFEPTIWQLRDNMDMQQVWFAGAHSNVGGSYLPDKDGSLLSDNALAWMIAEAERFNLSLEPHLTAGLRPNPLATLHDSRRSFYRIKQPYLRPLDPDVAPVLLHRSVKVRWEQDPKYRPKNLQAYLEKFGWPQELIDKLAAALEHHHHHH | soluble
20 | MEDELPIIKGKKVILFAPTFRGSGHGTAHYPFFKIDFERLARYCEKNNAVVLFKMHPFVKNRLNIADKHKQYFVDVSDFREVNDILFITDLLISDYSSLIYEYAVFKKPMIFYAFDLEDYITTRDFYEPYESFVPGKIVQSFDALMDALDNEDYEGEKVIPFLDKHFKYQDGRSSERLVRNLFGS | soluble
21 | MGSSHHHHHHSSGLVPRGSHMTATLGINGFGRIGRLVLRACMERNDITVVAINDPFMDVEYMAYLLKYDSVHGNFNGTVEVSGKDLCINGKVVKVFQAKDPAEIPWGASGAQIVCESTGVFTTEEKASLHLKGGAKKVIISAPPKDNVPMYVMGVNNTEYDPSKFNVISNASSTTNCLAPLAKIINDKFGIVEGLMTTVHSLTANQLTVDGPSKGGKDWRAGRCAGNNIIPASTGAAKAVGKVIPALNGKLTGMAIRVPTPDVSVVDLTCKLAKPASIEEIYQAVKEASNGPMKGIMGYTSDDVVSTDFIGCKYSSILDKNACIALNDSFVKLISWYDNESGYSNRLVDLAVYVASRGL | soluble
